Experimental data taken from patent US20250042956A1 (University of California, published 2025).

Tests used:
AT3G10480.3 NAC050 = target: T1, AT3G10480.3 NAC050 (Arabidopsis thaliana, UniProt Q9SQX9 1-447, limits assumed); test: IP-MS rep 2
T1 construct: Endogenous protein found by mass spectrometry
T1 sequence (looked up): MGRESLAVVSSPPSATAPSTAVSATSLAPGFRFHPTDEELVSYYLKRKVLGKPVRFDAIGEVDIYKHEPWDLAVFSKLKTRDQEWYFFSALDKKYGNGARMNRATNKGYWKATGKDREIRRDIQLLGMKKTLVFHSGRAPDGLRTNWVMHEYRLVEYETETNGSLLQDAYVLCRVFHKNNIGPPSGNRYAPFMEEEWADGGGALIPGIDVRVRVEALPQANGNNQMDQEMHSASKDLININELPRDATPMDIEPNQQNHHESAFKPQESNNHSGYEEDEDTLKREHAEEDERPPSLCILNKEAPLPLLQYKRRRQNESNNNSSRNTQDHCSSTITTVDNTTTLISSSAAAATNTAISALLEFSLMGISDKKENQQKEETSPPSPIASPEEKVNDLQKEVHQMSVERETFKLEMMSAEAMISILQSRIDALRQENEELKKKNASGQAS
Outline: (§1)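 Peptide counts for co-purified proteins come from mass spectrometry of proteins pulled down from Arabidopsis floral buds with anti-FLAG magnetic beads. Ten grams of unopened buds from wild-type and FLAG-tagged transgenic lines were ground in liquid nitrogen and homogenised in 25 mL IP buffer. Lysates were held with 250 μL anti-FLAG M2 magnetic beads at 4° C for 2 hours, and bound proteins were eluted in TBS with 250 μg/mL 3×FLAG peptides.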

AT5G67580.1 TRB2 [1] = target: T2, AT5G67580.1 TRB2 (Arabidopsis thaliana, UniProt Q9FJW5 1-299); test: IP-MS rep 2
T2 construct: Endogenous protein found by mass spectrometry
T2 sequence: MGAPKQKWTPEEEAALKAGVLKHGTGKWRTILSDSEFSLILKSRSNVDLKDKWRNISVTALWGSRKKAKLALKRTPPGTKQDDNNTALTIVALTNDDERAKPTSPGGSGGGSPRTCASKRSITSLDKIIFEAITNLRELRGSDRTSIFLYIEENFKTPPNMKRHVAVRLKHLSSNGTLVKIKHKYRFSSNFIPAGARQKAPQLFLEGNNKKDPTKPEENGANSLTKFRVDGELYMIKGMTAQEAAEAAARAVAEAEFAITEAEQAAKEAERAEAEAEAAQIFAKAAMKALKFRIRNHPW
Outline: as §1

AT5G08450.1 HDC1 = target: T3, AT5G08450.1 HDC1 (Arabidopsis thaliana); test: IP-MS rep 2
T3 construct: Endogenous protein found by mass spectrometry
Outline: as §1

AT5G51230.1 EMF2 = target: T4, AT5G51230.1 EMF2 (Arabidopsis thaliana, UniProt Q8L6Y4 1-631); test: IP-MS rep 2
T4 construct: Endogenous protein found by mass spectrometry; also called EMBRYONIC FLOWER 2
T4 sequence (looked up): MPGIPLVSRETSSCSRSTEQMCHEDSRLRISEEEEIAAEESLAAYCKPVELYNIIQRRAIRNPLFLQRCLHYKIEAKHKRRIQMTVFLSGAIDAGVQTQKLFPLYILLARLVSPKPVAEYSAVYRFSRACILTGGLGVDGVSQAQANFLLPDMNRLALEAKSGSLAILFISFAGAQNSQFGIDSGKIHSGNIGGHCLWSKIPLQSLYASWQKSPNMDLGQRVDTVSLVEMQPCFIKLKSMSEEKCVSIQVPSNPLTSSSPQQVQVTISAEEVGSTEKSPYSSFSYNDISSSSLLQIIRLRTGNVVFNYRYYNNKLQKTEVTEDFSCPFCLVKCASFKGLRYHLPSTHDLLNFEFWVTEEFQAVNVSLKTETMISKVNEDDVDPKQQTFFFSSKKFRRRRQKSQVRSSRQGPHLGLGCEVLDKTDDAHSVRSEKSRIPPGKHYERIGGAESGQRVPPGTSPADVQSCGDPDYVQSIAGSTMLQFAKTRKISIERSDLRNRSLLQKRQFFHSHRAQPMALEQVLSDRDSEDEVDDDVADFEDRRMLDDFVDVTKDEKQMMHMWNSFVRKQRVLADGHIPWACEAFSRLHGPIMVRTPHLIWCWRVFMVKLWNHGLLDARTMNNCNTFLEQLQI
Outline: as §1

AT3G20740.1 FIE [2] = target: T5, AT3G20740.1 FIE (Arabidopsis thaliana, UniProt Q9LT47 1-369); test: IP-MS rep 2
T5 construct: Endogenous protein found by mass spectrometry; also called FERTILIZATION INDEPENDENT ENDOSPERM
T5 sequence (looked up): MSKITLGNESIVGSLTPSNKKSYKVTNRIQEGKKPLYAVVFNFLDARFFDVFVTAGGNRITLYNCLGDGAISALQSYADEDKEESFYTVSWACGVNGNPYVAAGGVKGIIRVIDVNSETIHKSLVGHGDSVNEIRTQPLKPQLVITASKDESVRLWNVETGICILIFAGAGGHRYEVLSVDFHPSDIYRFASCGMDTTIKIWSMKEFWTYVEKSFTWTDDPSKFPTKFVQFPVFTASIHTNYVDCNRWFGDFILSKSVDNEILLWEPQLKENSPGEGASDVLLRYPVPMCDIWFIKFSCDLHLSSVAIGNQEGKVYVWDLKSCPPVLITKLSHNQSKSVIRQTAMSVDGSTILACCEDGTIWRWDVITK
Outline: as §1

AT5G67580.1 TRB2 [3] = target: T2, AT5G67580.1 TRB2; test: IP-MS rep 1
Outline: as §1

AT4G35510.1 TRBIP1 = target: T6, AT4G35510.1 TRBIP1 (Arabidopsis thaliana); test: IP-MS rep 1
T6 construct: Endogenous protein found by mass spectrometry
T6 chain: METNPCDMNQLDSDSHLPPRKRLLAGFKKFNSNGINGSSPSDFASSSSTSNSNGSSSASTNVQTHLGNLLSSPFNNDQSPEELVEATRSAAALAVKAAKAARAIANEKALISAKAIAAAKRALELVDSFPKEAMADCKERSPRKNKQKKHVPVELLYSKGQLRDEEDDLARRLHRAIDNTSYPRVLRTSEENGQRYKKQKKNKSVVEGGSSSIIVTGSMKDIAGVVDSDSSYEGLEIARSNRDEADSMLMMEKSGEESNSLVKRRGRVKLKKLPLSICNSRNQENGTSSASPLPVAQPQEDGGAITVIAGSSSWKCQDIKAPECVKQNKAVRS
Outline: as §1

AT3G20740.1 FIE [4] = target: T5, AT3G20740.1 FIE; test: IP-MS rep 1
Outline: as §1

B1: TRBIP2 (bait of the TRBIP2 IP-MS) (other, not shown: small tags and cut ends)
chain: MATNACLESDSLLPPRKRLLAGFKNQNSRISNESPSPPFASSSSSTTTSNGSSASAVVHTHHLDHLLNDQTRSPEELAQASKATAALAVKVAKAARATANEKAIIASKAVAAAKNALELFASFPAAETVSCKEPRLIRAINNSPRVLTDCSGHRNKKQKTLTSTMNDGNDVAGVVDSDDGTRVNGKLLLCDNTLKEKTEEESSSLGKRRGRVKLPLSMCAYKDQENGITLEENNLSVSKSEGYNGGVAQVIERPSWKCQDLKSPECVKQNKVVRS
notes: tag and its position not described; also called TRBIP2-1; TRBIP2-2
**Q.** Which IP-MS count (AT3G10480.3 NAC050) does the source give for B1 here?
**A.** The IP-MS count was 0.

**Q.** What about the IP-MS count (AT5G67580.1 TRB2 [1]) of the same binder?
**A.** The IP-MS count was 3.

**Q.** And the IP-MS count (AT5G08450.1 HDC1)?
**A.** Its IP-MS count is 0.

**Q.** And the IP-MS count (AT5G51230.1 EMF2)?
**A.** The IP-MS count was 0.

**Q.** What about the IP-MS count (AT3G20740.1 FIE [2]) of the same binder?
**A.** Its IP-MS count is 0.

**Q.** What about the IP-MS count (AT5G67580.1 TRB2 [3]) of the same binder?
**A.** The IP-MS count was 43.

**Q.** What about the IP-MS count (AT4G35510.1 TRBIP1) of the same binder?
**A.** Its IP-MS count is 1.

**Q.** What about the IP-MS count (AT3G20740.1 FIE [4]) of the same binder?
**A.** The IP-MS count was 1.
